Source: paper doi:10.64898/2025.12.03.691989 (bioRxiv, 2025)

Columns and labels:
[1] = biological target: T1, human UBA6 (full-length, amino acid residues 1-1052) (human, UniProt A0AVT1 1-1052); experiment: MST
T1 sequence (looked up): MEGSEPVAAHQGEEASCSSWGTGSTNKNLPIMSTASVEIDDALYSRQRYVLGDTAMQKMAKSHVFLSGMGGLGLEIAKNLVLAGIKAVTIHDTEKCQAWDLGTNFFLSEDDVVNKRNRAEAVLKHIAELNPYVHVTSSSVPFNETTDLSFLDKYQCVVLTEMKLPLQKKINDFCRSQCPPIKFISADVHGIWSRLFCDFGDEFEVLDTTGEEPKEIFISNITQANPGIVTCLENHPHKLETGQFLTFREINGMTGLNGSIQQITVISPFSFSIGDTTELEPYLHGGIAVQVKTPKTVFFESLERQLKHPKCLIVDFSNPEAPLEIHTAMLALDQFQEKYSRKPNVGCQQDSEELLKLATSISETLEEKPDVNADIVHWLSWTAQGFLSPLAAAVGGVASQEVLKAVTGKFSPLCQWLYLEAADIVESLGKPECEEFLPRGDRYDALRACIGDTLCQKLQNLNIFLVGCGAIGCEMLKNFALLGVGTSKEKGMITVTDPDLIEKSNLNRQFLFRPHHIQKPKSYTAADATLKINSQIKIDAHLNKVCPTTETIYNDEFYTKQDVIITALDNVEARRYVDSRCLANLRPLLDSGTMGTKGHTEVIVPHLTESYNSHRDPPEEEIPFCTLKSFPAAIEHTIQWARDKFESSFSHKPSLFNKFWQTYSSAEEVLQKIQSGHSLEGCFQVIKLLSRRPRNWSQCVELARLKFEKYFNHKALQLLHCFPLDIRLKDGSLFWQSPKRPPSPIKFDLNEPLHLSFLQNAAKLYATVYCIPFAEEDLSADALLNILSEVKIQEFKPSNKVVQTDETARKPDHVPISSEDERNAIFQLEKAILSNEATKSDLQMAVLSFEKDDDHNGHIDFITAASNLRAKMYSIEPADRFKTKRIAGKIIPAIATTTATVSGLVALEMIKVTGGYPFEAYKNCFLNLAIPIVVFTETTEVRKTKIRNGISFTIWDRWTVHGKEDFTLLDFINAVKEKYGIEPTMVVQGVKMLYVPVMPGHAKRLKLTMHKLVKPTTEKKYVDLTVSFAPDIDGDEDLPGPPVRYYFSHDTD

human UBA1 = biological target: T2, human UBA1 (human, UniProt P22314 1-1058); experiment: MST
T2 sequence (looked up): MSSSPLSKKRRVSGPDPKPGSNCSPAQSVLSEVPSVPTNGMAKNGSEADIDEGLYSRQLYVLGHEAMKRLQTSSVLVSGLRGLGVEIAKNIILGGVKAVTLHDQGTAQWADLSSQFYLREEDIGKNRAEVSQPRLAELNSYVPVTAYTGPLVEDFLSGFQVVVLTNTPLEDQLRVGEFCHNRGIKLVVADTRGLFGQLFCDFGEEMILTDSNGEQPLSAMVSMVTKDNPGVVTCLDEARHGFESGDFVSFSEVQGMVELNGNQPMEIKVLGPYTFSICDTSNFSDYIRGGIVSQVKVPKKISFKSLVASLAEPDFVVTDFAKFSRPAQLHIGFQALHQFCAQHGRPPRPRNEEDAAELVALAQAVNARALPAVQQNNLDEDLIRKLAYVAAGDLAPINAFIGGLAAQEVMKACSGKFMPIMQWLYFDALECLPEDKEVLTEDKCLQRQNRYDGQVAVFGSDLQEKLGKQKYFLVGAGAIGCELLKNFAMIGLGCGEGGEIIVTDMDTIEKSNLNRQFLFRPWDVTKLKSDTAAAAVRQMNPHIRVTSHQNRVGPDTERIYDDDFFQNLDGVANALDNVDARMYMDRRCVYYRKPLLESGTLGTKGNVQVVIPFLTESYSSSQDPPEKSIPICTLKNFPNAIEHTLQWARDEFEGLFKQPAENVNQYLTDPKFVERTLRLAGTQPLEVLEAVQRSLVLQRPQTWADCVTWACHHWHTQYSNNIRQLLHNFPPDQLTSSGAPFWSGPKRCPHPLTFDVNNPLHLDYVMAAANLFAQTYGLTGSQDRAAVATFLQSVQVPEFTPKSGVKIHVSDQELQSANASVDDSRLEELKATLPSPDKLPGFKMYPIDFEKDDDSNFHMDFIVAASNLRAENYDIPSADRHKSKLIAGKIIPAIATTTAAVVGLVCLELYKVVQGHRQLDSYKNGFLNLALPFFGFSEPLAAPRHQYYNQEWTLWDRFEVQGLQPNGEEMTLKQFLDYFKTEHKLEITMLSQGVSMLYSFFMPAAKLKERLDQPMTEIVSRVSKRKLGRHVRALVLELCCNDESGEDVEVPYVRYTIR

Kd [1]: 23 µM | Kd (human UBA1): 13 µM
B1: BIRC6 UBC domain (amino acid residues 4520-4857) (domain or fragment)
chain: not shown
